This note sets out measurements from patent US20230295310A1 (ABCELLERA BIOLOGICS, published 2023).

Residue numbers refer to the chain shown, from its start.

This test has as its target human EGFR, C-terminal eGFP-tagged, on CHO-K1 cells (human, UniProt P00533 25-1210). The test can be described thus: cell-based or functional assay.

B1: GOMP001_bsAb_013 (bispecific antibody, human IgG1, kappa, L234A L235A)
heavy 1: QVQLVQSGAEVKKPGASVKVSCKASGYTFTSHWMHWVRKAPGQGLEWIGEFNPSNGRTNYNEEFKSKATMTVDTSTNTAYMELSSLRSEDTAVYYCASRDYDYDGRYFDYWGQGTLVTVSSASTKGPSVFPLAPSSKSTSGGTAALGCLVADYFPEPVTVSWNSGALTSGVHTFPAVLQSSGLYSLSSVVTVPSSSLGTQTYICNVNHKPSNTKVDEKVEPKSCDKTHTCPPCPAPEAAGGPSVFLFPPKPKDTLMISRTPEVTCVVVDVSHEDPEVKFNWYVDGVEVHNAKTKPREEQYNSTYRVVSVLTVLHQDWLNGKEYKCKVSNKALPAPIEKTISKAKGQPREPQVYTLPPSREEMTDNQVSLTCLVKGFYPSDIAVEWESNGQPENNYKTTPPVLMSDGSFFLASKLTVDKSRWQQGNVFSCSVMHEALHNHYTQKSLSLSPG
light 1: RIQMTQSPSSLSASVGDRVTITCSASSSVTYMYWYQDKPGKAPKLLIYDTSNLASGVPSRFSGSGSGTDYTFTISSLQPEDIATYYCQQWSSHIFTFGQGTKVEIKRTVAAPSVFIFPPSDKQLKSGTARVVCLLNNFYPREAKVQWKVDNALQSGNSQESVTEQDSKDSTYSLSSTLTLSKADYEKHKVYACEVTHQGLSSPVTKSFNRGEC
heavy 2: QVQLVQSGAEVKKPGASVKVSCKASGYTFTSYDINWVRYATGQGLEWMGWMNPKSGKTGYAQKFQGRITMTRNTPISTVYMDLSSLRSEDTAVYYCAREGHYDFWTGYYSFDYWGRGTLVTVSSASTKGPSVFPLAPSSKSTSGGTAALGCLVKDYFPEPVTVSWNSGALTSGVHTFPAVLQSSGLYSLSSVVTVPSSSLGTQTYICNVNHKPSNTKVDKKVEPKSCDKTHTCPPCPAPEAAGGPSVFLFPPKPKDTLMISRTPEVTCVVVDVSHEDPEVKFNWYVDGVEVHNAKTKPREEQYNSTYRVVSVLTVLHQDWLNGKEYKCKVSNKALPAPIEKTISKAKGQPRRPRVYTLPPSREEMTKNQVSLVCLVKGFYPSDIAVEWESNGQPENNYKTTPPVLDSDGSFFLYSVLTVDKSRWQQGNVFSCSVMHEALHNHYTQKSLSLSPG
light 2: DIQMTQSPSSLSASVGDRVTITCRASQGIRNDLGWYQRTPGDAPKRLIYAASSLQSGVPSRFSGSGSGTEFTLTISSLQPEDFATYYCLQHYSYPYTFGQGTKLEIKRTVAAPSVFIFPPSDEQLKSGTASVVCLLNNFYPREAKVQWKVDNALQSGNSQESVTEQDSKDSTYSLSSTLTLSKADYEKHKVYACEVTHQGLSSPVTKSFNRGEC
For the molecule B1, the “EC50 CHO-K1 EGFR Low (nM); T cell activation bioassay, luciferase” value (from here on “EC50 CHO-K1 EGFR Low (nM)”) was 1.31 nM and the “EC50 CHO-K1 EGFR Med (nM); T cell activation bioassay, luciferase” value (“EC50 CHO-K1 EGFR Med (nM)” for short) worked out at 0.239 nM.

B2: GOMP001_bsAb_016 (bispecific antibody, human IgG1, kappa, L234A L235A)
heavy 1: QVQLVESGGGVVQPGRSLRLSCAASGFTFSGYGMHWVRYAPGKGLDWVAIIYYNGNNKYYADRVKGRFTISRDNSKNTLYLQMNSLRAEDTAVYYCARGGGYNWFDPWGRGTLVIVSSASTKGPSVFPLAPSSKSTSGGTAALGCLVKDYFPEPVTVSWNSGALTSGVHTFPAVLQSSGLYSLSSVVTVPSSSLGTQTYICNVNHKPSNTKVDKKVEPKSCDKTHTCPPCPAPEAAGGPSVFLFPPKPKDTLMISRTPEVTCVVVDVSHEDPEVKFNWYVDGVEVHNAKTKPREEQYNSTYRVVSVLTVLHQDWLNGKEYKCKVSNKALPAPIEKTISKAKGQPRRPRVYTLPPSREEMTKNQVSLVCLVKGFYPSDIAVEWESNGQPENNYKTTPPVLDSDGSFFLYSVLTVDKSRWQQGNVFSCSVMHEALHNHYTQKSLSLSPG
light 1: not shown
heavy 2: QVQLVQSGAEVKKPGASVKVSCKASGYTFTSHWMHWVRYAPGQGLEWIGEFNPSNGRTNYNEKFKSKATMTVDTSTNTAYMELSSLRSEDTAVYYCASRDYDYDGRYFDYWGRGTLVTVSSASTKGPSVFPLAPSSKSTSGGTAALGCLVKDYFPEPVTVSWNSGALTSGVHTFPAVLQSSGLYSLSSVVTVPSSSLGTQTYICNVNHKPSNTKVDKKVEPKSCDKTHTCPPCPAPEAAGGPSVFLFPPKPKDTLMISRTPEVTCVVVDVSHEDPEVKFNWYVDGVEVHNAKTKPREEQYNSTYRVVSVLTVLHQDWLNGKEYKCKVSNKALPAPIEKTISKAKGQPRRPRVYTLPPSREEMTKNQVSLVCLVKGFYPSDIAVEWESNGQPENNYKTTPPVLDSDGSFFLYSVLTVDKSRWQQGNVFSCSVMHEALHNHYTQKSLSLSPG
light 2: B1 light 1 with R1D, D37R, K41D, K122E, R130S
With B2, the “EC50 CHO-K1 EGFR Low (nM)” value turned out to be 0.0531 nM and the “EC50 CHO-K1 EGFR Med (nM)” value worked out at 0.00316 nM.

B3: GOMP001_bsAb_014 (bispecific antibody, human IgG1, kappa, L234A L235A)
heavy 1: B1 heavy 2
light 1: B1 light 2
heavy 2: B2 heavy 2
light 2: B1 light 1 with R1D, D37R, K41D, K122E, R130S
As to B3, the “EC50 CHO-K1 EGFR Low (nM)” value was found to be 0.238 nM and the “EC50 CHO-K1 EGFR Med (nM)” value came out at 0.0722 nM.

B4: GOMP001_bsAb_015 (bispecific antibody, human IgG1, kappa, L234A L235A)
heavy 1: B1 heavy 1
light 1: B1 light 1
heavy 2: B2 heavy 1
light 2: not shown
As to B4, the “EC50 CHO-K1 EGFR Low (nM)” value came out at 0.515 nM and the “EC50 CHO-K1 EGFR Med (nM)” value came out at 0.0267 nM.
